Read-outs that look alike come from different tables or passages of the source.
Tests used:
Assay in all cases: fluorescence anisotropy
[1] = target: T1, PabPolB exo- (family B DNA polymerase, exonuclease-deficient) (Pyrococcus abyssi, UniProt P0CL77 1-771, D215A)
T1 sequence: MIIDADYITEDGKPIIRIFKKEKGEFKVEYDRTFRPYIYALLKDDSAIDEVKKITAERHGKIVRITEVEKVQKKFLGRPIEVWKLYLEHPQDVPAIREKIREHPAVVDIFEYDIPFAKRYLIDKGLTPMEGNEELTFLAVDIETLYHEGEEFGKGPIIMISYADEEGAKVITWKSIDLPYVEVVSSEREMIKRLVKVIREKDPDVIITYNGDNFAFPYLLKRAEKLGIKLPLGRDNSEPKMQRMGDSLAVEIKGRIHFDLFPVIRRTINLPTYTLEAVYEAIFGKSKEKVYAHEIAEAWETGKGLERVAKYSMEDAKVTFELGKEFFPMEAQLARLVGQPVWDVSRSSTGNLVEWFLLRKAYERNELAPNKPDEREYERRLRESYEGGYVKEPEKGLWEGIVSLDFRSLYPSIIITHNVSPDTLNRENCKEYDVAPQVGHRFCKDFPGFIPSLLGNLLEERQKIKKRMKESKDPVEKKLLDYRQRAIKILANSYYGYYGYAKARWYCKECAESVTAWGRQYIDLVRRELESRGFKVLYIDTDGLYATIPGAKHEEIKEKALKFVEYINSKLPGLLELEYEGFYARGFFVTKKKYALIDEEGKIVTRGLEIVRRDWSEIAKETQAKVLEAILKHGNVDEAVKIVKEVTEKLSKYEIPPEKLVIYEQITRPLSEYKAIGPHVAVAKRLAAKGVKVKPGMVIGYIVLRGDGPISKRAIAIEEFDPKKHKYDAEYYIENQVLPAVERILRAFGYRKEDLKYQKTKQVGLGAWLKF

[2] = target: T1, PabPolB exo- (family B DNA polymerase, …); remark: listed apart in the source
[3] = target: T1, PabPolB exo- (family B DNA polymerase, …); remark: listed apart in the source
[4] = target: T1, PabPolB exo- (family B DNA polymerase, …); remark: listed apart in the source
[5] = target: T1, PabPolB exo- (family B DNA polymerase, …); remark: listed apart in the source
[6] = target: T1, PabPolB exo- (family B DNA polymerase, …); remark: listed apart in the source

B1: HEX-labeled primer/template 18/25 (dsDNA)
DNA 1: CGCCGGGCCGAGCCGTGC
DNA 2: AGGTCGTGCACGGCTCGGCCCGGCG
Kd [1]: 43 ± 6 nM | Kd [2]: 20 ± 6 nM | Kd [3]: 7 ± 1 nM | Kd [4]: 17 ± 2 nM | Kd [5]: 25 ± 3 nM | Kd [6]: 38 ± 6 nM
